According to the supplement of paper PMC9732359:
± gives the uncertainty stated by the source.

Assay: protein stability index of a GFP-peptide fusion (yeast GPS) (PSI 1-4); higher = more stable; sorted into four equal gates, so the index is relative within each strain
Procedure, shortened: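 Sequencing reads from sorted gates were used to score each peptide. The library consisted of tiled 17-residue yeast protein peptides fused downstream of GFP on a Cherry-expressing plasmid, pooled and carried in yeast. Mid-log cultures in leucine-free medium were split into four equal gates by GFP/Cherry ratio, and each gate's plasmids were PCR-amplified and Illumina-sequenced. The protein stability index adds up, over all gates, the read frequency multiplied by the gate number.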

| Sequence | protein stability index (doa10∆) | protein stability index (pdr5∆) | protein stability index (san1∆) | protein stability index (ubr1∆) |
| --- | --- | --- | --- | --- |
| LGKAQNWAKFTATASLG [RPN2] | 2.55 ± 0.059 | 2.56 ± 0.059 | 2.18 ± 0.069 | 2.28 ± 0.065 |
| LGKKKNVKEEETVAKSK [RPS8A] | 3.22 ± 0.052 | 3.31 ± 0.05 | 3.335 ± 0.031 | 3.25 ± 0.039 |
| LGKTIQTISLLTYLYEM [SNF2] | 1.72 ± 0.093 | 2.5 ± 0.087 | 2.47 ± 0.081 | 2.38 ± 0.076 |
| LGLAKSVHHARVLITQR [RPS9A] | 2.34 ± 0.12 | 2.86 ± 0.15 | 2.61 ± 0.17 |  |
| LGLFIHKISFSGTKSEV [YJL039C/NUP192] | 1.86 ± 0.072 | 2.14 ± 0.055 | 1.88 ± 0.085 | 2.12 ± 0.052 |
| LGNIASSFYINHASMDV [BRR2] | 2.84 ± 0.12 | 2.67 ± 0.12 | 2.88 ± 0.1 | 3.27 ± 0.15 |
| LGPLFKKIVDDTIMENP [IRR1] | 2.62 ± 0.071 | 2.88 ± 0.066 | 2.44 ± 0.13 | 2.82 ± 0.063 |
| LGQERATDLAGPANNPN [PRP8] | 2.94 ± 0.048 | 3.04 ± 0.068 | 2.95 ± 0.053 | 3.17 ± 0.057 |
| LGQYVQAHTLYNSVRPF [PRE10] | 2.74 ± 0.1 | 2.87 ± 0.099 | 2.78 ± 0.11 | 2.65 ± 0.053 |
| LGSGSLAAMAVLESHWK [PUP1] | 3.24 ± 0.16 | 3.27 ± 0.14 | 2.64 ± 0.2 | 3.69 ± 0.18 |
| LGSLTVEDYLSSVTSDS [RPC82] | 2.95 ± 0.11 | 3.02 ± 0.076 | 2.19 ± 0.22 | 3.2 ± 0.074 |
| LGSQSKSDEGGSYLCTS [YOR098C/NUP1] | 3.26 ± 0.11 | 2.98 ± 0.07 | 3.14 ± 0.069 | 2.71 ± 0.081 |
| LGSSEAENLLQLKTGLA [YGL172W/NUP49] |  | 3.29 ± 0.18 | 2.98 ± 0.085 | 2.5 ± 0.2 |
| LGVTYSSPTLATGFGAH [PRE4] | 2.41 ± 0.078 | 2.29 ± 0.12 | 2.48 ± 0.087 | 1.62 ± 0.12 |
| LGYTHIAINFTVNHSEK [RPP1] | 1.35 ± 0.038 | 1.25 ± 0.036 | 1.56 ± 0.062 | 1.41 ± 0.042 |
| LHCCIQLLMGDIPELSF [RPN3] | 1.71 ± 0.048 | 1.73 ± 0.052 | 1.78 ± 0.065 | 1.71 ± 0.042 |
| LHDTQIEGKLHMATALQ [RPN10] | 2.48 ± 0.22 | 2.37 ± 0.2 |  | 2.38 ± 0.23 |
| LHEKYLTEGGSILEEKI [SMC1] | 3.02 ± 0.077 | 3.24 ± 0.1 | 3.01 ± 0.061 | 3.19 ± 0.094 |
| LHNFESVAPTKQREIVK [NUT1] | 2.71 ± 0.084 | 2.55 ± 0.065 | 2.7 ± 0.053 | 2.6 ± 0.044 |
| LHNIWSNGLLSIVLLLL [YML103C/NUP188] | 1.38 ± 0.069 | 1.34 ± 0.059 | 1.5 ± 0.14 | 1.54 ± 0.12 |
| LHNLNEYQIVYYNPQAG [RGR1] | 1.41 ± 0.27 | 2.44 ± 0.15 | 2.1 ± 0.11 |  |
| LHYLKKFKHIDDKYGRK [SRP72] | 2.91 ± 0.061 | 2.88 ± 0.057 | 3.07 ± 0.055 | 2.85 ± 0.041 |
| LIERYYPKLTLDFQTNK [RPS17A] | 3.12 ± 0.074 | 3.01 ± 0.061 | 3.02 ± 0.045 | 2.74 ± 0.053 |
| LIIDDPSKGQSLSKISQ [RPP1] | 2.77 ± 0.07 | 2.81 ± 0.063 | 3.04 ± 0.055 | 3.02 ± 0.056 |
| LIIDGQIIFGVVEKKTV [RPO21] | 1.37 ± 0.087 | 1.38 ± 0.065 | 1.2 ± 0.2 | 1.54 ± 0.07 |

| Sequence | protein stability index (doa10∆) | protein stability index (pdr5∆) | protein stability index (san1∆) | protein stability index (ubr1∆) |
| --- | --- | --- | --- | --- |
| LIIIEKKQKLIEEQDKK [ITC1] | 3.12 ± 0.13 | 2.9 ± 0.21 | 2.96 ± 0.17 | 2.89 ± 0.084 |
| LIIQKIPSLQNNIEENL [ECM29] | 2.91 ± 0.067 | 2.88 ± 0.066 | 2.66 ± 0.065 | 2.98 ± 0.071 |
| LILGLNTSIAQFDIQSP [YML103C/NUP188] | 1.94 ± 0.044 | 1.81 ± 0.045 | 2.29 ± 0.071 | 2.6 ± 0.044 |
| LINGHRAPQQSVLQLFQ [SMC2] | 3 ± 0.095 | 2.48 ± 0.069 | 2.5 ± 0.063 | 2.42 ± 0.051 |
| LIPEDKRDQYLKSASKE [RPL28] |  | 3.1 ± 0.19 | 1.95 ± 0.18 | 3.36 ± 0.098 |
| LIPFIVKQVLLSVEIGV [NUT1] | 1.57 ± 0.031 | 1.6 ± 0.031 | 1.56 ± 0.059 | 1.74 ± 0.036 |
| LIRNVGTNTYRLGEWSK [POP1] | 1.9 ± 0.28 | 1.29 ± 0.22 | 1.12 ± 0.28 |  |
| LISDQLLEFFELVFSKG [YML103C/NUP188] | 2.57 ± 0.077 | 2.71 ± 0.11 | 3.1 ± 0.066 | 2.9 ± 0.057 |
| LITVMEKSPDPTIRSNA [YCS4] | 2.35 ± 0.052 | 2.48 ± 0.051 | 2.34 ± 0.053 | 2.57 ± 0.038 |
| LIYVNPFMLQWGIPLIK [FAS1] | 1.45 ± 0.082 | 1.4 ± 0.099 | 1.13 ± 0.14 | 1.65 ± 0.064 |
| LKAVTVEAGMIALRNGQ [RPT5] | 3.1 ± 0.23 | 2.9 ± 0.16 | 2.51 ± 0.17 |  |
| LKDLNLTVSIKIALMNI [RGR1] | 1.34 ± 0.062 | 1.66 ± 0.066 | 1.73 ± 0.077 | 1.21 ± 0.06 |
| LKELRIDNSPQAISYLH [GRR1] | 2.17 ± 0.054 | 2.55 ± 0.051 | 2.08 ± 0.057 | 2.4 ± 0.034 |
| LKESVEGEFNGDTIELA [PRE8] | 3.12 ± 0.092 | 3.48 ± 0.11 | 3.4 ± 0.072 | 3.2 ± 0.073 |
| LKGIQEFGADWYKVAKN [SWI3] | 3.25 ± 0.071 | 3.34 ± 0.072 | 3.37 ± 0.043 | 3.34 ± 0.057 |
| LKILKQVMEEKLDENNA [PUP2] |  |  | 2.8 ± 0.23 |  |
| LKISGEEESLHVFQYAN [RPC37] | 1.85 ± 0.13 | 2.21 ± 0.13 | 2.27 ± 0.14 | 2.41 ± 0.071 |
| LKLEYYNLLVKISLHKR [RPN5] | 1.38 ± 0.26 | 1.28 ± 0.26 |  | 1.13 ± 0.084 |
| LKNEGIDLDHKRFLILQ [SMC4] | 2.21 ± 0.22 | 2.35 ± 0.13 | 2.15 ± 0.12 | 2.84 ± 0.068 |
| LKNKREIYRISFQLSKI [RPS9B] | 3.34 ± 0.18 | 3.66 ± 0.16 | 3.54 ± 0.062 | 3.38 ± 0.12 |
| LKNPEIFQRVGIKPPKG [RPT4] | 2.13 ± 0.12 | 2.18 ± 0.22 | 2.45 ± 0.12 | 2.31 ± 0.18 |
| LKNTMQYLTNFSRFRDQ [RPB4] | 3.09 ± 0.12 | 2.97 ± 0.17 | 3.1 ± 0.087 | 3.19 ± 0.074 |
| LKPSMSVALHRHSNALV [RPT3] | 1.64 ± 0.11 | 2.41 ± 0.15 | 2.51 ± 0.15 | 2.53 ± 0.22 |
| LKQEIDRGLSIKLNGST [SNU114] | 2.88 ± 0.092 | 3.17 ± 0.11 | 3 ± 0.099 | 2.88 ± 0.09 |
| LKQNAIRARIPFYGSYT [SRP54] | 2.82 ± 0.077 | 2.8 ± 0.063 | 2.5 ± 0.087 | 2.89 ± 0.062 |
